Laboratory results published in patent US7666414B2, “Methods for treating prostate cancer using modified antibodies to prostate-specific membrane antigen” (Cornell Research Foundation, Inc., priority 2001, dated 2010).

Test system: metastatic androgen-independent prostate cancer
Assay: Phase 1 dose-escalating trial of DM1 conjugated deJ591
Format: in vivo, human
Experimental: Based upon emerging clinical safety and PK, repeat dosing at four week intervals was subsequently permitted.
DLT is defined as the occurrence of one or more of the following:
• Grade 4 thrombocytopenia (platelet count <10,000/mm3) • Requirement for platelet transfusion and/or other methods to increase platelet count • Febrile neutropenia (ANC <1000/mm^3 concurrent with a temperature >38.5° C.). (Per the Infection/Febrile Neutropenia subsection of the NCI CTC version 2.0, febrile neutropenia is, by definition, a >Grade 3 toxicity) • Grade 4 neutropenia without fever of >7 days duration • Grade 3 neutropenia requiring granulocyte colony-stimulating factor (G-CSF) administration • Grade 4 anemia (hemoglobin <6.5 g/dL) • Grade 3 anemia (hemoglobin 6.5-<8.0 g/dL) in a subject receiving EpogenÒNon-hematologic • Any Grade 3 non-hematologic toxicity considered by the investigator to be possibly related to study drug MTD is defined as the highest dose level with an observed incidence of DLT in no more than 1 out of 6 subjects.
There will be a 4 week (28 days±2 days) interval between dose administrations. […] Subjects will receive the same dose administered on day 1 (Visit 1) of their first infusion.
The starting dose is 18 mg/m2. Subjects will be followed for 3 weeks after the first dose to determine dose escalation. Dose escalation will continue until DLT and MTD are determined. Two phases of dose escalation will be used. In the first phase, one subject will be enrolled at each dose level. In the second phase, three subjects will be enrolled at each dose level. The planned dose increments are 80%, 60%, 40%, 30%, 30%, 30%, 30%, 30% and 30% above the previous dose, with a total of ten dose levels planned. All dose increments will be adjusted to 30% above the previous dose if DLT or two or more occurrences of non dose-limiting grade 2 or greater drug-related toxicity (NDLT) are observed in subjects treated at any of the first three dose levels. Non dose-limiting grade 2 or greater toxicity includes grade 2 or 3 hematologic toxicity and grade 2 non-hematologic toxicity. Drug-related toxicity is toxicity considered by the investigator to be related to study drug. In the first phase, one subject will be enrolled at the lowest dose level and observed for 3 weeks to ensure that there are no significant adverse events. If no DLT or NDLT is observed during the 3 week observation period, dose escalation will continue and a new subject will be enrolled at the next predefined dose level. Single subjects will continue to be enrolled and observed at sequentially increasing dose levels until one subject experiences a DLT or a NDLT. If DLT is observed in a single subject at any dose level in the first phase, the second phase will begin, where 3 subjects per dose level will be enrolled. The dose assignment for the first subject enrolled in the second phase will be one dose level lower than the dose level at which DLT is observed. If NDLT is observed in the subject treated at any of the first three dose levels, dose escalation will stop and two more subjects will be enrolled at the current dose level. Subsequent dose escalation and enrollment will be determined by the number and grade of toxicities observed in these two additional subjects. If DLT or NDLT is not observed, the first phase will continue. Dose escalation will proceed to the next predefined dose level, with one subject enrolled at that dose level. If DLT is observed in one subject, three subjects will be enrolled at the current dose level and the second phase will begin. The dose increments for subsequent dose escalations will be 30% for the remainder of the study. If DLT is observed in both subjects, dose escalation will stop and three subjects will be enrolled at the previous dose level, marking the beginning of the second phase. The previous dose level will be evaluated as potential MTD. No further dose escalation will occur. […]

deJ591-DM1: deJ591 conjugated via SPP disulfide linker to the maytansinoid DM1, DM1/antibody ratio about 3.5
tolerability (18 to 343 mg/m^2): well-tolerated in the majority of patients | MTD (23 patients, 18 to 343 mg/m^2): ≥ 343 mg/m^2 | DLT (highest dose level 343 mg/m^2): Only one DLT, an uncomplicated febrile neutropenia | PK of antibody related analytes (J591-DM1, Total J591 and free J591) (in vivo): typical of monoclonal antibodies | Plasma levels of DM1-SH (in vivo): detectable | anti-antibodies (in vivo): No anti-antibodies against DM1 conjugated deJ591, deJ591 or DM1 were detected | disease response (one patient, 264 mg/m^2): PR by RECIST criteria | durable decrease in PSA (one patient, 264 mg/m^2): 70% | sustained PSA decline (one patient, 343 mg/m^2): > 50%
